# B1: Ab10.1, mutant antibody of Ab10 (anti-HGFR) (antibody, V domains shown)
# VH: QVQLVESGGGVVQPGRSLRLSCAASGFSLSDYGVHWVRQAPGKGLEWLAVIWSGGSTNYADAFVSRLTISKDNSKNTVYLQMNSLRAEDTAVYYCARNHDNPYIYAMDYWGQGTTVTVSS
# VL: DIVLTQSPDSLAVSLGERATINCRADKSVSTSTYNYLHWYQQKPGQPPKLLIYRGSFLATGVPDRFSGSGSGTDFTLTISSLQAEDVAVYYCQHSRDLPPTFGQGTKLEIK
# Target: T1, human HGFR protein extracellular domain with the His tag (human, UniProt P08581 25-932)
# T1 construct: also called HGFR-His
# Test: SPR Biacore T200, comparison of KD values
# T1 sequence (P08581 other isoform, or with tags, fused parts or gaps): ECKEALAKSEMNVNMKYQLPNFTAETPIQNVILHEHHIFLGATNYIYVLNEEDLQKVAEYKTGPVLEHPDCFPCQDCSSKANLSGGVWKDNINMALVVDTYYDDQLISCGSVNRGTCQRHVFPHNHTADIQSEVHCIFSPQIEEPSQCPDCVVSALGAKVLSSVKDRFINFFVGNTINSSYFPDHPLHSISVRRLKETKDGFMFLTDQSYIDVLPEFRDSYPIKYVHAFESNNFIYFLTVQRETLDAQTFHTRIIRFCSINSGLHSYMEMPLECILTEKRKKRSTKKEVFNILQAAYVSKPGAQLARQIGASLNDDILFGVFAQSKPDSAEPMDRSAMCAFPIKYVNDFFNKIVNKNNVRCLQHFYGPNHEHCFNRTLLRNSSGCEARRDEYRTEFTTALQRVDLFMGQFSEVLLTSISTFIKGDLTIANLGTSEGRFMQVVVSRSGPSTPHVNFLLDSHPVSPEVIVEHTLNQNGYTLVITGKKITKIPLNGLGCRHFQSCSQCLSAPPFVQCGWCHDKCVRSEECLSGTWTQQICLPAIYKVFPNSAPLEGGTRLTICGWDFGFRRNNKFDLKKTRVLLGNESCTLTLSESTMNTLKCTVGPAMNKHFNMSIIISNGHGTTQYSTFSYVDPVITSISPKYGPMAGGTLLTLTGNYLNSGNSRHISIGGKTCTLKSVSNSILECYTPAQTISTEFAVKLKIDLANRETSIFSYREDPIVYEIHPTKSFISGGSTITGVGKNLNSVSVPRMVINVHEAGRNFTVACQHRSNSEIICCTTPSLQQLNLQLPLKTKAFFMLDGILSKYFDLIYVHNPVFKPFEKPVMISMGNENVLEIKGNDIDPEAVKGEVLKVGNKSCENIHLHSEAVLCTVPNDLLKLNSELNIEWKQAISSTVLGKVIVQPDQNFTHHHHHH
binder,measurement,value
B1,fold affinity against the parent antibody Ab10,≥ 4 fold
